± gives the uncertainty stated by the source.
Assay: protein stability index of a GFP-peptide fusion (yeast GPS) (PSI 1-4); higher = more stable; sorted into four equal gates, so the index is relative within each strain
How it was run: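 Tiled 17-residue yeast protein peptides were fused downstream of GFP in a plasmid that also expresses Cherry, and the pooled library was carried in yeast. Mid-log cultures in leucine-free medium were sorted into four equal gates by GFP/Cherry fluorescence ratio, and plasmids from each gate were PCR-amplified and Illumina-sequenced, with reads assigned to strains by barcodes. The protein stability index for each peptide was each gate's read frequency times its gate number, summed.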

| Sequence | protein stability index (doa10∆) | protein stability index (pdr5∆) | protein stability index (san1∆) | protein stability index (ubr1∆) |
| --- | --- | --- | --- | --- |
| FSQTVADNNDLQESINH [ECM29] | 3.03 ± 0.055 | 3.08 ± 0.049 | 3.02 ± 0.047 | 3.1 ± 0.048 |
| ELGVSIYDFPGTPEATK [NUT2] | 2.92 ± 0.076 | 3.06 ± 0.098 | 3.06 ± 0.078 | 3.04 ± 0.048 |
| SGTTNFMRNGLLEGLNE [UBP6] | 2.73 ± 0.21 | 2.87 ± 0.14 | 3.22 ± 0.17 | 3.45 ± 0.23 |
| LISNAIYGKKTMVIQDE [ECM29] | 1.58 ± 0.25 | 1.83 ± 0.27 | – | 1.4 ± 0.14 |
| LMATEYQDIEGGFEDVE [RPB2] | 3.43 ± 0.14 | 3.31 ± 0.11 | 3.49 ± 0.069 | 3.44 ± 0.099 |
| YKLVNKNKENNTFTWNH [RPN4] | 2.65 ± 0.23 | 3.49 ± 0.27 | 3.09 ± 0.082 | 3.12 ± 0.21 |
| SKRGNDKKHFNNKNKRV [RPC53] | 3.17 ± 0.14 | 2.7 ± 0.11 | 3.09 ± 0.14 | 2.05 ± 0.09 |
| VKKLEIQQHARYDCSFC [RPL43A] | 2.73 ± 0.11 | 2.87 ± 0.092 | 2.96 ± 0.068 | 3.3 ± 0.092 |
| PNEHPGAKYVIRDSGDR [RPO21] | 3.01 ± 0.084 | 3.1 ± 0.087 | 2.7 ± 0.15 | 3.03 ± 0.069 |
| HTSSNSREIAQPSSSRY [SMB1] | 3.17 ± 0.11 | 2.97 ± 0.065 | 3.02 ± 0.054 | 3.22 ± 0.058 |
| PKVPEDIYKSHLDNSKS [RPN1] | 3.1 ± 0.12 | 2.98 ± 0.12 | 2.93 ± 0.1 | 3.24 ± 0.17 |
| SKSTSMKLSMPPEVTSS [POP1] | 2.4 ± 0.053 | 2.59 ± 0.062 | 2.44 ± 0.057 | 2.54 ± 0.035 |
| LVPPPRTIANQDHFHRL [RPR2] | 3.01 ± 0.086 | 3.15 ± 0.069 | 2.88 ± 0.051 | 2.93 ± 0.066 |
| KIMPKDILQITKKPLMV [SIR4] | 2.62 ± 0.088 | 2.79 ± 0.17 | 2.32 ± 0.1 | 2.56 ± 0.09 |
| YRSCETQDESEIKDAET [SMC4] | 3.77 ± 0.25 | – | 3.31 ± 0.16 | – |
| NTSSKRQKKKPTSAQKS [IRR1] | 2.71 ± 0.084 | 2.59 ± 0.08 | 2.5 ± 0.061 | 2.87 ± 0.07 |
| IHIQETQEFSKNYTTET [SIR3] | 3.39 ± 0.1 | 3.15 ± 0.11 | 3.4 ± 0.16 | 3.31 ± 0.069 |
| LEIDNKDSVTECSKDMK [SIR4] | 3.46 ± 0.14 | 3.53 ± 0.083 | 3.4 ± 0.12 | 3.63 ± 0.066 |
| SHNFQNAIFQMESEEVP [PCI8] | 2.85 ± 0.059 | 3.07 ± 0.068 | 2.7 ± 0.049 | 3.07 ± 0.05 |
| PFVPVLDRRFEIFFKKD [FAS1] | 2.87 ± 0.059 | 2.98 ± 0.067 | 2.73 ± 0.055 | 2.86 ± 0.057 |
| IDREGNARKVVGASVVV [RPS12] | 2.65 ± 0.18 | 2.75 ± 0.25 | – | 3.31 ± 0.22 |
| FHIACSVGNLEVVKSLY [NAS6] | 2.08 ± 0.078 | 2.39 ± 0.068 | 2.45 ± 0.056 | 2.67 ± 0.065 |
| DQSIASGNTNGAGSAFG [YOR098C/NUP1] | 3.26 ± 0.072 | 2.49 ± 0.06 | 2.44 ± 0.079 | 2.49 ± 0.078 |
| QGLAMVEKYAPDVVRSL [RRP42] | 2.25 ± 0.15 | 2.47 ± 0.16 | 2.3 ± 0.15 | 2.72 ± 0.13 |
| SMENTPKVPVSAAATPS [GAL11] | 2.07 ± 0.045 | 2.19 ± 0.049 | 2.24 ± 0.065 | 1.78 ± 0.036 |
| VLVDEIKSQYYSRISKL [YIL149C/MLP2] | 2.41 ± 0.054 | 2.46 ± 0.045 | 2.3 ± 0.058 | 2.29 ± 0.034 |

| Sequence | protein stability index (doa10∆) | protein stability index (pdr5∆) | protein stability index (san1∆) | protein stability index (ubr1∆) |
| --- | --- | --- | --- | --- |
| IVGVLQDDADPMVSVMK [RPT2] | 1.99 ± 0.057 | 2.31 ± 0.057 | 2.49 ± 0.11 | 2.26 ± 0.056 |
| LDDFGEEELFEVTKEED [RRP43] | 2.92 ± 0.11 | 2.54 ± 0.15 | 2.36 ± 0.12 | – |
| DQNEFLLERTREIHNEA [FAS2] | 3.12 ± 0.092 | 3.13 ± 0.08 | 2.99 ± 0.063 | 3.08 ± 0.067 |
| QTATQLLERGRLRKRVT [SMC2] | 3.04 ± 0.11 | 3.04 ± 0.083 | 2.92 ± 0.064 | 2.42 ± 0.078 |
| YSRITLIIDDPSKGQSL [RPP1] | 2.09 ± 0.056 | 2.44 ± 0.063 | 2.42 ± 0.048 | 2.78 ± 0.053 |
| EVSQFLIENGASVRIKD [NAS6] | 3.08 ± 0.21 | 2.39 ± 0.2 | – | 2.71 ± 0.12 |
| HRSKKDQDQYLEIAKDF [IRR1] | 3.15 ± 0.14 | 3.21 ± 0.12 | 3.04 ± 0.13 | 3.6 ± 0.27 |
| ELAQDPQTMEHYKQQIA [YCS4] | 2.31 ± 0.055 | 2.65 ± 0.077 | 2.1 ± 0.1 | 2.4 ± 0.06 |
| VNADDDDFMHSETREKE [RPB4] | 2.7 ± 0.089 | 2.61 ± 0.06 | 2.35 ± 0.089 | 1.99 ± 0.062 |
| LPHITQLEGFESRKAFF [RPB2] | 2.92 ± 0.082 | 2.96 ± 0.06 | 3.08 ± 0.052 | 3.12 ± 0.041 |
| GVYKRDNRTKSTTIKNI [SMC4] | 1.62 ± 0.06 | 1.54 ± 0.062 | 1.33 ± 0.14 | 1.23 ± 0.075 |
| QLEGFESRKAFFLGYMI [RPB2] | 1.22 ± 0.088 | 2.42 ± 0.075 | 1.41 ± 0.079 | 2.49 ± 0.045 |
| KAIFPNTVDGDLLKLVH [FAS1] | 2.19 ± 0.17 | 3.06 ± 0.14 | 2.22 ± 0.14 | 1.92 ± 0.05 |
| LMEFLCVVSTDSTNLSD [ECM29] | 1.92 ± 0.059 | 1.65 ± 0.056 | 1.84 ± 0.094 | 1.72 ± 0.063 |
| PRQRMEEVVSNDEGVWD [PRP8] | 3.45 ± 0.068 | 3.45 ± 0.056 | 2.87 ± 0.06 | 3.06 ± 0.048 |
| DVAYLLKSESATSQYLK [YGL172W/NUP49] | 2.25 ± 0.14 | 3.21 ± 0.094 | 2.94 ± 0.1 | 3.03 ± 0.11 |
| LVNIRTQTSKEQEIENN [ITC1] | 2.9 ± 0.054 | 3.05 ± 0.067 | 2.9 ± 0.061 | 3.06 ± 0.066 |
| LEVFHHFFKWIEFIVYH [SRB8] | 1.13 ± 0.054 | 1.11 ± 0.047 | 1.08 ± 0.17 | 1.06 ± 0.041 |
| LSNLHESNKRYRFFKKI [SNF12] | 2.79 ± 0.12 | 2.68 ± 0.081 | 2.9 ± 0.08 | 2.24 ± 0.065 |
| LSGLSADKPFTRLTAYQ [YML031W/NDC1] | 2.95 ± 0.058 | 3.14 ± 0.06 | 2.95 ± 0.058 | 2.97 ± 0.063 |
| QELAKSIRSRRPYQVNV [PRE1] | 2.92 ± 0.14 | 2.88 ± 0.078 | 3.2 ± 0.14 | 3.16 ± 0.078 |
| ASRHGQKGTIGITYRRE [RPB2] | 2.53 ± 0.08 | 1.84 ± 0.051 | 2.39 ± 0.082 | 2.22 ± 0.051 |
| FSYFFESFESYHNLTTH [RPN6] | 2.61 ± 0.089 | 2.65 ± 0.082 | 2.85 ± 0.084 | 2.78 ± 0.066 |
| LKHYNGYDINYISKIGE [SWI1] | 2.81 ± 0.056 | 2.71 ± 0.049 | 2.07 ± 0.066 | 2.62 ± 0.053 |
| ITTFVKRSTVPLNDGFV [YML103C/NUP188] | 2.37 ± 0.066 | 2.32 ± 0.093 | 1.91 ± 0.11 | 2.35 ± 0.053 |
| VLQYSDWESDLHIHLNQ [YDL116W/NUP84] | 2.48 ± 0.073 | 2.61 ± 0.065 | 2.75 ± 0.066 | 3.04 ± 0.081 |

Reference: the supplement of paper PMC9732359
